Assay results taken from publication PMC4877109, “Structure of the Cellulose Synthase Complex of Gluconacetobacter hansenii at 23.4 Å Resolution” (PLoS ONE, 2016).

B1: AcsAB complex (AcsA + AcsB, cellulose synthase) (Novacetimonas hansenii) (protein)
chain: MPEVRSSTQSESGMSQWMGKILSIRGAGLIIGVFGLCALIAATSVTLPPEQQLIVAFVCVVIFFIVGHKPSRRSQIFLEVLSGLVSLRYLTWRLTETLSFDTWLQGLLGTMLLVAELYALMMLFLSYFQTIAPLHRAPLPLPPNPDEWPTVDIFVPTYNEELSIVRLTVLGSLGIDWPPEKVRVHILDDGRRPEFAAFAAECGANYIARPTNEHAKAGNLNYAIGHTDGDYILIFDCDHVPTRAFLQLTMGWMVEDPKIALMQTPHHFYSPDPFQRNLSAGYRTPPEGNLFYGVVQDGNDFWDATFFCGSCAILRRTAIEQIGGFATQTVTEDAHTALKMQRLGWSTAYLRIPLAGGLATERLILHIGQRVRWARGMLQIFRIDNPLFGRGLSWGQRLCYLSAMTSFLFAVPRVIFLSSPLAFLFFGQNIIAASPLALLAYAIPHMFHAVGTASKINKGWRYSFWSEVYETTMALFLVRVTIVTLLSPSRGKFNVTDKGGLLEKGYFDLGAVYPNIILGLIMFGGLARGVYELSFGHLDQIAERAYLLNSAWAMLSLIIILAAIAVGRETQQKRNSHRIPATIPVEVANADGSIIVTGVTEDLSMGGAAVKMSWPAKLSGPTPVYIRTVLDGEELILPARIIRAGNGRGIFIWTIDNLQQEFSVIRLVFGRADAWVDWGNYKADRPLLSLMDMVLSVKGLFRSSGDIVHRSSPTKPSAGNALSDDTNNPSRKERVLKGTVK
notes: acsAB fusion polypeptide with N-terminal His12 tag, processed in vivo into AcsA (83 kDa) and AcsB (93 kDa); homologous expression in G. hansenii (pUCD2CDHisAcsAB with acsCD); LFCE14 detergent, Co-NTA and size exclusion; ~180 kDa monomeric complex

Tests used:
[1] = target: T1, AcsAB complex (AcsA + AcsB, cellulose synthase) (Novacetimonas hansenii, UniProt Q76KJ8); test: UDP-14C-glucose incorporation with and without c-di-GMP; assay type: biochemical; details: allosteric activator (30 μM); 20 mM MgCl2, 2 mM UDP-glucose, pH 7.5, 30 °C
T1 construct: acsAB fusion polypeptide with N-terminal His12 tag, processed in vivo into AcsA (83 kDa) and AcsB (93 kDa); homologous expression in G. hansenii (pUCD2CDHisAcsAB with acsCD); LFCE14 detergent, Co-NTA and size exclusion; ~180 kDa monomeric complex

[2] = substrate: O=c1ccn([C@@H]2O[C@H](CO[P@@](=O)(O)O[P@@](=O)(O)O[C@H]3O[C@H](CO)[C@@H](O)[C@H](O)[C@H]3O)[C@@H](O)[C@H]2O)c(=O)[nH]1; test: UDP-14C-glucose incorporation into insoluble glucan, scintillation counting, Michaelis-Menten fit; assay type: biochemical, Novacetimonas hansenii; details: Mg2+ 20 mM, 30 μM c-di-GMP, 5 mM cellobiose, 20 mM Tris-HCl pH 7.5, 100 mM NaCl, 30 °C, LFCE14 detergent-purified complex, labelled compound as tracer

T1 sequence (Q76KJ8 742-1550, one chain of several): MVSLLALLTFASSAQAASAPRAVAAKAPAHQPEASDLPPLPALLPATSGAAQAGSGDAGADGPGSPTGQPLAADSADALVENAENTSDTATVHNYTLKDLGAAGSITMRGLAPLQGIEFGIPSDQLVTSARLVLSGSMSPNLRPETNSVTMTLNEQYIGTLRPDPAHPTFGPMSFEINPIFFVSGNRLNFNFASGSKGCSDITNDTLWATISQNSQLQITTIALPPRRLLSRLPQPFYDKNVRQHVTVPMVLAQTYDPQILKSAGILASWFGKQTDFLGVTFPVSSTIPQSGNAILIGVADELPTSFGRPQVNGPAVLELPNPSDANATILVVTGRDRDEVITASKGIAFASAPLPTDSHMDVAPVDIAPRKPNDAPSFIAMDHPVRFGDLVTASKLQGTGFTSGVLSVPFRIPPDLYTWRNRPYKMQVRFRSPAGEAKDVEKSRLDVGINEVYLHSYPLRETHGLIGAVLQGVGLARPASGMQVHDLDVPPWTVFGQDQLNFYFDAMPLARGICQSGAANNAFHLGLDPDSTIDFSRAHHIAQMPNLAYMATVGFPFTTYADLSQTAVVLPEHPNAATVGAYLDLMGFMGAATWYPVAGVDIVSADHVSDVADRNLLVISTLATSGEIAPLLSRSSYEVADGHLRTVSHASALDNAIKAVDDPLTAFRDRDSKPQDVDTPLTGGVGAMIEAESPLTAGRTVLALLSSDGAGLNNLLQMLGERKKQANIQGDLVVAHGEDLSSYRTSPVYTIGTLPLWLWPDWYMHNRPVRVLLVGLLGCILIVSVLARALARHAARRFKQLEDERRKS

| Molecule | UDP-14C-glucose incorporation with and without c-di-GMP [1] | Km [2] | kcat [2] |
| --- | --- | --- | --- |
| Nc1nc2c(ncn2[C@@H]2O[C@@H]3COP(=O)(O)O[C@H]4[C@@H](O)[C@H](n5cnc6c(=O)[nH]c(N)nc65)O[C@@H]4COP(=O)(O)O[C@H]3[C@H]2O)c(=O)[nH]1 [c-di-GMP] | when c-di-GMP was omitted, the protein was not able to catalyze label incorporation into cellulose |  |  |
| B1 |  | 0.12 (± 0.03) mM | 2.9 molecules per complex per second |
